B1: Pistol ribozyme (parent)
chain: GGGUCGUUGUUCCAUAAUCGCGUGGAUAUGGCACGCAAGUUUCUACCGGGCACCGUAAAUGUCCGACUGGAGCCGUUCGGGCGGCUAUAAACAGACCUCAGGCCCGAAGCGUGGCGGCACCUGCCGCCGGUGGUAAAAAAGAUCGGAAGAGCACACGUCU

Variants of: B1
Assay: aptazyme ON/OFF ratio, guanine; higher = stronger switching; co-transcriptional cleavage with and without guanine

Point of comparison: U7A U8G G9A U10C U11A C12A C13G, “aptazyme ON/OFF ratio” value 1.11. Against it:
- U7A U8G G9A U10A U11G C12U C13G — higher, 1.52
- U7A U8G G9A U10A U11G C12U C13U — higher, 1.33
- U7A U8G G9A U10A U11G C12U C13A — lower, 1
- U7A U8G G9A U11A C13G — higher, 1.21
- U7A U8G G9A U11A C13A — higher, 1.24
- U7A U8G G9A U11A C13U — higher, 1.55
- U7A U8G G9A U10C U11A C13A — higher, 1.16
- U7A U8G G9A U10C U11A C13G — lower, 1.1
- U7A U8G G9A U10C U11A C13U — higher, 1.2
- U7A U8C U11G C12U — higher, 1.28
- U7A U8C U11G C12G — lower, 1.09
- U7A U8C U11G C12A — higher, 1.19
- U7A U8G G9A U10A U11A C12U C13U — lower, 1.07
- U7A U8G G9A U10A U11A C12U C13A — higher, 1.2
- U7A U8G G9A U10A U11A C12U C13G — higher, 1.29
- U7A U8G G9A U10C U11A C12G C13U — higher, 1.22
- U7A U8G G9A U10C U11A C12G C13A — lower, 1.04
- U7A U8G G9A U10C U11A C12G C13G — higher, 1.13
- U7A U8G G9C — higher, 1.97
- U7A U8G G9A — higher, 3.13
- U7A U8G G9A U10G U11A C12A — higher, 1.28
- U7A U8G G9A U10G U11A C12U — higher, 1.12
- U7A U8G G9A U10G U11A C12G — higher, 1.28
- U7A U8G G9C U10A U11A — higher, 1.89
- U7A U8G G9A U10G U11G C12G C13G — higher, 1.68
- U7A U8G G9A U10G U11G C12G C13A — lower, 0.971
- U7A U8G G9A U10G U11G C12G C13U — higher, 1.53
- U7A U8G G9A U10G C12U — higher, 1.21
- U7A U8G G9A U10G C12G — higher, 1.36
- U7A U8G G9A U10G C12A — higher, 1.24
- U7A U8C U11G — higher, 1.37
- U7A U8G G9C U10A U11A C12U C13G — higher, 1.34
- U7A U8G G9C U10A U11A C12U C13A — higher, 1.42
- U7A U8G G9C U10A U11A C12U C13U — higher, 1.57
- U7A U8G G9C U10A C12A C13A — higher, 1.25
- U7A U8G G9C U10A C12A C13U — higher, 1.32
- U7A U8G G9C U10A C12A C13G — higher, 1.26
- U7A U8G G9A U10A U11A C12G C13U — higher, 1.37
- U7A U8G G9A U10A U11A C12G C13G — higher, 1.34
- U7A U8G G9A U10A U11A C12G C13A — higher, 1.29
- U7A U8G G9A U10A C12G C13G — higher, 1.33
- U7A U8G G9A U10A C12G C13U — higher, 1.34
- U7A U8G G9A U10A C12G C13A — higher, 1.52
- U7A U8G G9C U10A U11A C13A — higher, 1.15
- U7A U8G G9A U11C C12U C13A — lower, 1.07
- U7A U8G G9A U11C C12U C13U — higher, 1.46
- U7A U8G G9A U11C C12U C13G — lower, 0.973
- U7A U8G G9C C13A — higher, 1.47
- U7A U8G G9C C13U — higher, 1.42
- U7A U8G G9C C13G — the same, 1.11
- U7A U8G G9C U10A C12U C13G — higher, 1.21
- U7A U8G G9C U10A C12U C13U — the same, 1.11
- U7A U8G G9C U10A C12U C13A — higher, 1.31
- U7A U8G G9A C13G — higher, 1.18
- U7A U8G G9A C13U — higher, 1.39
- U7A U8G G9A C13A — higher, 1.39
- U7A U8G G9A U11C C12G C13G — higher, 1.4
- U7A U8G G9A U11C C12G C13A — higher, 1.32
- U7A U8G G9A U11C C12G C13U — higher, 1.14
- U7A U8G C12G C13G — higher, 1.27
- U7A U8G C12G C13U — higher, 1.38
- U7A U8G C12G C13A — higher, 1.38
- U7A U8C U11G C13A — higher, 1.12
- U7A U8C U11G C13G — higher, 1.15
- U7A U8C U11G C13U — higher, 1.21
- U7A U8G G9A U10C U11A — higher, 1.68
- U7A U8G G9A U10C U11G — higher, 1.74
- U7A U8G G9A U10C U11C — lower, 1.02
- U7A U8G G9C C12U C13A — higher, 1.4
- U7A U8G G9C C12U C13U — higher, 1.21
- U7A U8G G9C C12U C13G — higher, 1.22
- U7A U8G G9C U10A — higher, 1.24
- U7A U8G G9A U10G C13A — higher, 1.18
- U7A U8G G9A U10G C13G — lower, 1.09
- U7A U8G G9A U10G C13U — higher, 1.31
- U7A U8G G9C C12U — higher, 1.88
- U7A U8G G9C C12G — higher, 1.29
- U7A U8G G9C C12A — higher, 1.78
- U7A U8G G9A U10A U11C C12A — higher, 1.44
- U7A U8G G9A U10A U11C C12U — lower, 1.04
- U7A U8G G9A U10A U11C C12G — higher, 1.37
- U7A U8G G9A U10G U11G C13U — higher, 1.22
- U7A U8G G9A U10G U11G C13G — higher, 1.42
- U7A U8G G9A U10G U11G C13A — lower, 1.06
- U7A U8G G9A U10C U11G C12U C13G — higher, 1.33
- U7A U8G G9A U10C U11G C12U C13U — higher, 1.23
- U7A U8G G9A U10C U11G C12U C13A — higher, 1.21
- U7A U8G G9A U10G U11G — higher, 1.39
- U7A U8G G9A U10G U11C — lower, 1.01
- U7A U8G G9A U10G U11A — lower, 1.06
- U7A U8G G9A U10A U11G C13U — lower, 1.09
- U7A U8G G9A U10A U11G C13G — higher, 1.27
- U7A U8G G9A U10A U11G C13A — higher, 1.13
- U7A U8G C12U C13U — higher, 1.53
- U7A U8G C12U C13A — higher, 1.23
- U7A U8G C12U C13G — higher, 1.24
- U7A U8G G9A U10A U11A C12U — higher, 1.31
- U7A U8G G9A U10A U11A C12A — higher, 1.45
- U7A U8G G9A U10A U11A C12G — higher, 1.46
- U7A U8G G9A U10A — higher, 1.4
- U7A U8G G9A U10C — higher, 2.9
- U7A U8G G9A U10G — higher, 1.43
- U7A U8G G9A U10C U11A C12A C13U — higher, 1.19
- U7A U8G G9A U10C U11A C12A C13A — higher, 1.12
- U7A U8G G9A U10A U11A C12A C13U — higher, 1.29
- U7A U8G G9A U10A U11A C12A C13A — higher, 1.3
- U7A U8G G9A U10A U11A C12A C13G — higher, 1.13
- U7A U8G G9A U11A C12G — higher, 1.37
- U7A U8G G9A U11A C12U — higher, 1.38
- U7A U8G G9A U11A C12A — higher, 1.56
- U7A U8G G9A C12G C13G — higher, 1.81
- U7A U8G G9A C12G C13U — higher, 1.37
- U7A U8G G9A C12G C13A — higher, 1.19
- U7A U8G G9A U10G U11C C12A C13A — higher, 1.2
- U7A U8G G9A U10G U11C C12A C13G — higher, 1.36
- U7A U8G G9A U10G U11C C12A C13U — higher, 1.38
- U7A U8G G9A U11G C12U — higher, 1.36
- U7A U8G G9A U11G C12A — higher, 1.14
- U7A U8G G9A U11G C12G — higher, 1.32
- U7A U8G — higher, 1.13
- U7A U8G G9A U10C U11C C12U C13U — lower, 1.07
- U7A U8G G9A U10C U11C C12U C13G — lower, 1.08
- U7A U8G G9A U10C U11C C12U C13A — lower, 1.06
- U7A U8G G9C U10A U11A C12G C13U — higher, 1.38
- U7A U8G G9C U10A U11A C12G C13A — higher, 1.15
- U7A U8G G9C U10A U11A C12G C13G — higher, 1.36
- U7A U8G G9A U10C U11G C13U — higher, 1.25
- U7A U8G G9A U10C U11G C13A — higher, 1.19
- U7A U8G G9A U10C U11G C13G — higher, 1.3
- U7A U8G G9C U10A C12A — higher, 1.4
- U7A U8G G9C U10A C12G — higher, 1.43
- U7A U8G G9C U10A C12U — higher, 1.36
- U7A U8G G9C U10A C12G C13G — higher, 1.28
- U7A U8G G9C U10A C12G C13A — higher, 1.25
- U7A U8G G9C U10A C12G C13U — higher, 1.28
- U7A U8G G9A U10G U11C C13A — higher, 1.12
- U7A U8G G9A U10G U11C C13U — lower, 1.06
- U7A U8G G9A U10G U11C C13G — lower, 1.1
- U7A U8G G9A U10G C12U C13A — higher, 1.43
- U7A U8G G9A U10G C12U C13G — higher, 1.36
- U7A U8G G9A U10G C12U C13U — higher, 1.24
- U7A U8G G9A U11G C12G C13U — higher, 1.52
- U7A U8G G9A U11G C12G C13G — lower, 1.08
- U7A U8G G9A U11G C12G C13A — lower, 1.1
- U7A U8G G9A U10A C13U — higher, 1.26
- U7A U8G G9A U10A C13A — higher, 1.41
- U7A U8G G9A U10A C13G — higher, 1.18
- U7A U8G G9A U10A C12U C13U — lower, 1.04
- U7A U8G G9A U10A C12U C13G — higher, 1.13
- U7A U8G G9A U10A C12U C13A — higher, 1.38
- U7A U8G G9A U10C C12G — higher, 1.35
- U7A U8G G9A U10C C12U — higher, 1.23
- U7A U8G G9A U10C C12A — higher, 1.25
- U7A U8G G9A U10C U11C C12A C13G — higher, 1.22
- U7A U8G G9A U10C U11C C12A C13A — lower, 1.09
- U7A U8G G9A U10C U11C C12A C13U — lower, 1.04
- U7A U8G G9A U11G C12U C13A — higher, 1.12
- U7A U8G G9A U11G C12U C13U — higher, 1.5
- U7A U8G G9A U11G C12U C13G — higher, 1.44
- U7A U8G G9A U10G U11C C12U — higher, 1.16
- U7A U8G G9A U10G U11C C12G — higher, 1.38
- U7A U8G G9A U10G U11C C12A — higher, 1.45
- U7A U8C U11G C12G C13G — lower, 1.1
- U7A U8C U11G C12G C13A — lower, 1.04
- U7A U8C U11G C12G C13U — the same, 1.11
- U7A U8G G9A U10G U11G C12A C13G — higher, 1.34

— the RNAGym collection of RNA variant scans (doi:10.1021/acssynbio.7b00057)
